These results are taken from FireProtDB (doi:10.1038/9384).

B1: Acyl-CoA-binding protein, P07107 (parent)
chain: MSQAEFDKAAEEVKHLKTKPADEEMLFIYSHYKQATVGDINTERPGMLDFKGKAKWDAWNELKGTSKEDAMKAYIDKVEELKKKYGI

Variants of B1 are the subject of the series. The following applies: Bos taurus; pH 5.3; 5 °C; GdnHCl; Fluorescence; Sodium acetate 0.02 M; structure 2ABD; whole UniProt chain shown.

L16A: the “ddG of mutation (higher = less stable)” value was 3.57 kcal/mol, the denaturant m value was determined as 3.19 kcal/mol/M and the unfolding free energy was 4.51 kcal/mol.
Turning to D22A, the “ddG of mutation (higher = less stable)” value amounted to 0.4 kcal/mol, the denaturant m value stood at 3.32 kcal/mol/M and the unfolding free energy turned out to be 7.68 kcal/mol.
In the same order, the values of L26A are 2.02 kcal/mol, 3.36 kcal/mol/M and 6.06 kcal/mol.
K33E: the “ddG of mutation (higher = less stable)” value is 1.47 kcal/mol, the denaturant m value amounted to 3.42 kcal/mol/M and the unfolding free energy turned out to be 6.61 kcal/mol.
The matching figures for K33A: 1.61 kcal/mol, 3.39 kcal/mol/M and 6.47 kcal/mol.
For the variant E68A, the “ddG of mutation (higher = less stable)” value was found to be 0.8 kcal/mol, the denaturant m value was 3.45 kcal/mol/M and the unfolding free energy amounted to 7.28 kcal/mol.
For the variant Y74F, the “ddG of mutation (higher = less stable)” value was -0.03 kcal/mol, the denaturant m value came out at 3.31 kcal/mol/M and the unfolding free energy stood at 8.11 kcal/mol.
As for K53M, the “ddG of mutation (higher = less stable)” value was -0.48 kcal/mol, the denaturant m value is 3.71 kcal/mol/M and the unfolding free energy worked out at 8.56 kcal/mol.
Turning to Y29N, the “ddG of mutation (higher = less stable)” value worked out at 2.47 kcal/mol, the denaturant m value turned out to be 3.65 kcal/mol/M and the unfolding free energy was 5.61 kcal/mol.
For the variant Y29A, the “ddG of mutation (higher = less stable)” value stood at 2.52 kcal/mol, the denaturant m value was found to be 3.97 kcal/mol/M and the unfolding free energy came out at 5.56 kcal/mol.
In the same order, the values of Y29F are 1.26 kcal/mol, 3.56 kcal/mol/M and 6.82 kcal/mol.
For the variant V78A, the “ddG of mutation (higher = less stable)” value came to 1.54 kcal/mol, the denaturant m value was found to be 3.78 kcal/mol/M and the unfolding free energy amounted to 6.54 kcal/mol.
In the same order, the values of I75A are 1.34 kcal/mol, 3.91 kcal/mol/M and 6.74 kcal/mol.
As for L81A, the “ddG of mutation (higher = less stable)” value stood at 4.57 kcal/mol, the denaturant m value is 3.08 kcal/mol/M and the unfolding free energy was determined as 3.51 kcal/mol.
Turning to K55M, the “ddG of mutation (higher = less stable)” value was 0.22 kcal/mol, the denaturant m value amounted to 3.33 kcal/mol/M and the unfolding free energy stood at 7.86 kcal/mol.
K55A: the “ddG of mutation (higher = less stable)” value is 1.41 kcal/mol, the denaturant m value was 3.15 kcal/mol/M and the unfolding free energy is 6.67 kcal/mol.
Take I40A: the “ddG of mutation (higher = less stable)” value was 1.06 kcal/mol, the denaturant m value was determined as 3.51 kcal/mol/M and the unfolding free energy stood at 7.02 kcal/mol.
In the case of V13A, the “ddG of mutation (higher = less stable)” value was found to be 1.5 kcal/mol, the denaturant m value amounted to 3.47 kcal/mol/M and the unfolding free energy stood at 6.58 kcal/mol.
Regarding A10G, the “ddG of mutation (higher = less stable)” value was 2 kcal/mol, the denaturant m value worked out at 3.4 kcal/mol/M and the unfolding free energy stood at 6.08 kcal/mol.
As to P20A, the “ddG of mutation (higher = less stable)” value is 0.91 kcal/mol, the denaturant m value stood at 3.3 kcal/mol/M and the unfolding free energy was determined as 7.17 kcal/mol.
The matching figures for Q34A: 3.03 kcal/mol, 4.49 kcal/mol/M and 5.05 kcal/mol.
Regarding Y32N, the “ddG of mutation (higher = less stable)” value turned out to be 0.97 kcal/mol, the denaturant m value came to 4.95 kcal/mol/M and the unfolding free energy was determined as 7.11 kcal/mol.
Regarding T36A, the “ddG of mutation (higher = less stable)” value was 1.28 kcal/mol, the denaturant m value is 3.93 kcal/mol/M and the unfolding free energy amounted to 6.8 kcal/mol.
For F6A, the “ddG of mutation (higher = less stable)” value was found to be 2.63 kcal/mol, the denaturant m value stood at 3.51 kcal/mol/M and the unfolding free energy came out at 5.45 kcal/mol.
Take F27A: the “ddG of mutation (higher = less stable)” value was 1.53 kcal/mol, the denaturant m value came out at 3.8 kcal/mol/M and the unfolding free energy came out at 6.55 kcal/mol.
